In PMC5482323:

Columns and labels:
basigin (Homo sapiens) = basigin (Homo sapiens) (UniProt P35613); conditions: cited from earlier work
[1] = target: basigin (CD147), Ig domains 1 and 2 of the short isoform (aa 22-205) (UniProt P35613); experiment: SPR; BIAcore T200; basigin immobilised on a CM5 chip by amine coupling (950 RU); PfRH5 injected as a twofold dilution series from 2 uM, 120 s at 30 uL/min, 300 s dissociation; 20 C; 10 mM HEPES pH 7.4, 150 mM NaCl, 3 mM EDTA, 0.005% Tween-20, 2 mg/mL dextran, 1 mg/mL salmon sperm DNA; global 1:1 interaction model

Substance | Kd (basigin (Homo sapiens)) | Kd [1]
PfRH5 (from UniProt Q8IFM5) | 1000 nM | –
Plasmodium falciparum reticulocyte-binding protein homolog 5 with C-terminal C-tag (EPEA) (from UniProt Q8IFM5 26-526) (domain or fragment) | – | 390 nM
Plasmodium falciparum reticulocyte-binding protein homolog 5 with C-terminal hexa-histidine tag (from UniProt Q8IFM5 26-526) (domain or fragment) | – | 830 nM
